In paper PMC11319201:

Target: STAG2^R370Q–RAD21 complex (UniProt Q8N3U4)
Test: ITC; MicroCal iTC 200, 25 °C; 20 mM Tris pH 7.7, 150 mM NaCl, 0.5 mM TCEP; 300 μl of 50 μM STAG2–RAD21 in the cell, 500 μM CTCF peptide injected as 16 x 2.5 μl; one-site binding model

STAG2^R370Q–RAD21 complex, sequence (Q8N3U4 whole entry R370Q, chain 1 of 2): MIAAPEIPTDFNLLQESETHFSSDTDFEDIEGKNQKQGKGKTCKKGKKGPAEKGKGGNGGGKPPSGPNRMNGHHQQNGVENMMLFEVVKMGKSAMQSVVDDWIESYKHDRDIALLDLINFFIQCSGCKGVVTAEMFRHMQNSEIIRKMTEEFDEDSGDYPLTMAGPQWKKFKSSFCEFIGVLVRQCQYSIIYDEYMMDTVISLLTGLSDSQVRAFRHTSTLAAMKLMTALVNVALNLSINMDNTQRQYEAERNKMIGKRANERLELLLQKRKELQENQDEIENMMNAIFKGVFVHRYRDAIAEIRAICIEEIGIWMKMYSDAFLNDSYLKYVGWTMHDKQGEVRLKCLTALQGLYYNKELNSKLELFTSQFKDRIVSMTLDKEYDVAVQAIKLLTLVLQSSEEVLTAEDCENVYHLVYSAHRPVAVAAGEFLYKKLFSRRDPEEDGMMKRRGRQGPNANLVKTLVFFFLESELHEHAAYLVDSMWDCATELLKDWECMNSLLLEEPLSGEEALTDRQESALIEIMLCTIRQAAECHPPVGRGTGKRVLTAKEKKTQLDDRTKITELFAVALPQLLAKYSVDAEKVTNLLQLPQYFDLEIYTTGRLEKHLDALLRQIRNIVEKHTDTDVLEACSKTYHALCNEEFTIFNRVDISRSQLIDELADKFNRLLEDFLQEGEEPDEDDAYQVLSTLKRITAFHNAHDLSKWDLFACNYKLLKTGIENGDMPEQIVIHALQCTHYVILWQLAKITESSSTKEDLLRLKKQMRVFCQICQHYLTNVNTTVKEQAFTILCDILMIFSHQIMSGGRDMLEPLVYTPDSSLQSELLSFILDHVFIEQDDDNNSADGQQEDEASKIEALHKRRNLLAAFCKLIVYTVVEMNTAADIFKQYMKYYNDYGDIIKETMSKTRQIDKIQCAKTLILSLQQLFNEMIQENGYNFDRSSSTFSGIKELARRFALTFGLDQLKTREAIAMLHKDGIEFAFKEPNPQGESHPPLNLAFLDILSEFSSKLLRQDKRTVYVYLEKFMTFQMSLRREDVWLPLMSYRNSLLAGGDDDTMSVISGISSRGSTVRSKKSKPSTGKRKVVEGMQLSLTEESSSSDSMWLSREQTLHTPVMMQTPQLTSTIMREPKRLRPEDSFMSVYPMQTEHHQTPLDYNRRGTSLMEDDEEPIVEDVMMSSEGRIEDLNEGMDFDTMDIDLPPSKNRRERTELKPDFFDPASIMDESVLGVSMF
STAG2^R370Q–RAD21 complex, sequence (O60216 whole entry, chain 2 of 2, further chain): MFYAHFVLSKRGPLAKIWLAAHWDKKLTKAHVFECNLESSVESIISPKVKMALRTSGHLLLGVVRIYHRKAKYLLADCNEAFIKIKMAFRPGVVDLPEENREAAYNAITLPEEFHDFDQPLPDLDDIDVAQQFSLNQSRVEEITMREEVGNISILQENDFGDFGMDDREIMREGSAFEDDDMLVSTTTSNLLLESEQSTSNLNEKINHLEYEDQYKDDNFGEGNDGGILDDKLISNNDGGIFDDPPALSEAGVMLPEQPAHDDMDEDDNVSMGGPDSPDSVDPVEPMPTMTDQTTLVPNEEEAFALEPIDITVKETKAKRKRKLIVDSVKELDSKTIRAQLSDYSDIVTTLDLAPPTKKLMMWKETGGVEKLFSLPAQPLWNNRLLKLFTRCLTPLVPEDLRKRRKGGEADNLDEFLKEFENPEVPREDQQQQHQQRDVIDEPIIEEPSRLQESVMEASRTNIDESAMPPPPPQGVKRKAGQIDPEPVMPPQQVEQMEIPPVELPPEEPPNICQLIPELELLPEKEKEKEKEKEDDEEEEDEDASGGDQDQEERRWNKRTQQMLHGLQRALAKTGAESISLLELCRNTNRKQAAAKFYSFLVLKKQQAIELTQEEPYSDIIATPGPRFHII

fold lower affinity than WT: 10 fold
Substance: CTCF peptide
